Experiments:
Assay in all cases: cell-based or functional assay
[1] = molecular target: HIV-1 Env of pseudovirus Du172.17 (HIV-1)
[2] = molecular target: HIV-1 Env of pseudovirus T257-31 (HIV-1)
[3] = molecular target: HIV-1 Env of pseudovirus BJOX009000.02.4 (HIV-1)
[4] = molecular target: HIV-1 Env of pseudovirus HIV-0013095-2.11 (HIV-1)
[5] = molecular target: HIV-1 Env of pseudovirus BF1266.431a (HIV-1)
[6] = molecular target: HIV-1 Env of pseudovirus C3347.c11 (HIV-1)
[7] = molecular target: HIV-1 Env of pseudovirus X2088_c9 (HIV-1)
[8] = molecular target: HIV-1 Env of pseudovirus T278-50 (HIV-1)
[9] = molecular target: HIV-1 Env of pseudovirus CNE19 (HIV-1)
[10] = molecular target: HIV-1 Env of pseudovirus 7030102001E5(Rev-) (HIV-1)
[11] = molecular target: HIV-1 Env of pseudovirus Q259.d2.17 (HIV-1)
[12] = molecular target: HIV-1 Env of pseudovirus RHPA4259.7 (HIV-1)
[13] = molecular target: HIV-1 Env of pseudovirus ZM214M.PL15 (HIV-1)
[14] = molecular target: HIV-1 Env of pseudovirus CNE20 (HIV-1)
[15] = molecular target: HIV-1 Env of pseudovirus CNE17 (HIV-1)
[16] = molecular target: HIV-1 Env of pseudovirus C2101.c01 (HIV-1)
[17] = molecular target: HIV-1 Env of pseudovirus 1006_11_C3_1601 (HIV-1)
[18] = molecular target: HIV-1 Env of pseudovirus SC422661.8 (HIV-1)
[19] = molecular target: HIV-1 Env of pseudovirus ZM249M.PL1 (HIV-1)
[20] = molecular target: HIV-1 Env of pseudovirus Du156.12 (HIV-1)
[21] = molecular target: HIV-1 Env of pseudovirus 3415.v1.c1 (HIV-1)
[22] = molecular target: HIV-1 Env of pseudovirus Ce1086_B2 (HIV-1)
[23] = molecular target: HIV-1 Env of pseudovirus 6041.v3.c23 (HIV-1)
[24] = molecular target: HIV-1 Env of pseudovirus 1012_11_TC21_3257 (HIV-1)
[25] = molecular target: HIV-1 Env of pseudovirus Q461.e2 (HIV-1)
[26] = molecular target: HIV-1 Env of pseudovirus Ce2060_G9 (HIV-1)
[27] = molecular target: HIV-1 Env of pseudovirus 249M B10 (HIV-1)
[28] = molecular target: HIV-1 Env of pseudovirus 6952.v1.c20 (HIV-1)
[29] = molecular target: HIV-1 Env of pseudovirus Du422.1 (HIV-1)
[30] = molecular target: HIV-1 Env of pseudovirus 1056_10_TA11_1826 (HIV-1)
[31] = molecular target: HIV-1 Env of pseudovirus CNE21 (HIV-1)
[32] = molecular target: HIV-1 Env of pseudovirus CNE58 (HIV-1)
[33] = molecular target: HIV-1 Env of pseudovirus 3103.v3.c10 (HIV-1)
[34] = molecular target: HIV-1 Env of pseudovirus 3365.v2.c2 (HIV-1)
[35] = molecular target: HIV-1 Env of pseudovirus REJO4541.67 (HIV-1)
[36] = molecular target: HIV-1 Env of pseudovirus ZM197M.PB7 (HIV-1)
[37] = molecular target: HIV-1 Env of pseudovirus 231965.c01 (HIV-1)

## N49P7 (antibody)
[1]
  IC50: 0.102 µg/mL
  IC80: 0.668 µg/mL
  MPI: 100
[2]
  IC50: 0.158 µg/mL
  IC80: 0.619 µg/mL
  MPI: 100
[3]
  IC50: 0.113 µg/mL
  IC80: 0.506 µg/mL
  MPI: 100
[4]
  IC50: 0.073 µg/mL
  IC80: 0.253 µg/mL
  MPI: 100
[5]
  IC50: 0.057 µg/mL
  IC80: 0.199 µg/mL
  MPI: 100
[6]
  IC50: 0.024 µg/mL
  IC80: 0.067 µg/mL
  MPI: 100
[7]
  IC50: 0.116 µg/mL
  IC80: 0.338 µg/mL
  MPI: 100
[8]
  IC50: 22.3 µg/mL
  IC80: > 50 µg/mL
  MPI: 75
[9]
  IC50: 0.009 µg/mL
  IC80: 0.041 µg/mL
  MPI: 100
[10]
  IC50: 0.184 µg/mL
  IC80: 0.832 µg/mL
  MPI: 100
[11]
  IC50: 0.332 µg/mL
  IC80: 2.47 µg/mL
  MPI: 98
[12]
  IC50: 0.083 µg/mL
  IC80: 0.246 µg/mL
  MPI: 100
[13]
  IC50: 0.213 µg/mL
  IC80: 0.953 µg/mL
  MPI: 100
[14]
  IC50: 0.028 µg/mL
  IC80: 0.1 µg/mL
  MPI: 100
[15]
  IC50: 0.126 µg/mL
  IC80: 0.46 µg/mL
  MPI: 100
[16]
  IC50: 0.06 µg/mL
  IC80: 0.34 µg/mL
  MPI: 100
[17]
  IC50: 0.044 µg/mL
  IC80: 0.158 µg/mL
  MPI: 100
[18]
  IC50: 0.114 µg/mL
  IC80: 0.32 µg/mL
  MPI: 100
[19]
  IC50: 0.039 µg/mL
  IC80: 0.134 µg/mL
  MPI: 100
[20]
  IC50: 0.032 µg/mL
  IC80: 0.086 µg/mL
  MPI: 100
[21]
  IC50: 0.16 µg/mL
  IC80: 0.55 µg/mL
  MPI: 100
[22]
  IC50: 0.089 µg/mL
  IC80: 0.568 µg/mL
  MPI: 100
[23]
  IC50 (neutralisation, TZM.bl cells): 0.047 µg/mL
  IC80 (neutralisation, TZM.bl cells): 0.222 µg/mL
  MPI: 100
[24]
  IC50: 0.046 µg/mL
  IC80: 0.125 µg/mL
  MPI: 100
[25]
  IC50: 0.261 µg/mL
  IC80: 0.922 µg/mL
  MPI: 100
[26]
  IC50: 0.661 µg/mL
  IC80: 2.55 µg/mL
  MPI: 100
[27]
  IC50: 0.081 µg/mL
  IC80: 0.377 µg/mL
  MPI: 100
[28]
  IC50 (neutralisation, TZM.bl cells): 18.4 µg/mL
  IC80 (neutralisation, TZM.bl cells): 38.9 µg/mL
  MPI: 91
[29]
  IC50: 4.5 µg/mL
  IC80: 19.5 µg/mL
  MPI: 93
[30]
  IC50: 0.141 µg/mL
  IC80: 0.468 µg/mL
  MPI: 100
[31]
  IC50: 0.756 µg/mL
  IC80: 6.02 µg/mL
  MPI: 97
[32]
  IC50: 0.029 µg/mL
  IC80: 0.067 µg/mL
  MPI: 100
[33]
  IC50 (neutralisation, TZM.bl cells): 0.158 µg/mL
  IC80 (neutralisation, TZM.bl cells): 0.509 µg/mL
  MPI: 100
[34]
  IC50: 0.07 µg/mL
  IC80: 0.186 µg/mL
  MPI: 100
[35]
  IC50: 0.015 µg/mL
  IC80: 0.049 µg/mL
  MPI: 100
[36]
  IC50: 0.109 µg/mL
  IC80: 0.347 µg/mL
  MPI: 100
[37]
  IC50 (neutralisation, TZM.bl cells): 0.054 µg/mL
  IC80 (neutralisation, TZM.bl cells): 0.193 µg/mL
  MPI: 100
